The data set is described as follows: yeast display, Sf9 membrane polyspecificity reagent, FACS + sequencing; frameworks hold sequencing errors. In outline: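 Nanobodies from a synthetic yeast display library (Saccharomyces cerevisiae BJ5465), induced 36–48 hours with galactose, were stained 1 hour at 4 °C with 10% biotinylated, detergent-solubilized Sf9 membrane reagent, enriched on streptavidin microbeads, then FACS-sorted. Anti-HA (expression) and streptavidin (reagent binding) fluorescence set low and high (top ~1%) gates. Polyreactivity labels come from the gate of origin. Genes were colony-PCR amplified, MiSeq 2 × 250 sequenced and filtered by CDR length.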
For the sequence “QVQLVESGGGLVQAGGSLRLSCAASGSTFTIYAMGWYRQATGKERELVATIRAGGGRTSYADSVKGRFTISRDNAKNTVYLQMNSLKPEDTAVYYCAVYVRPTRYGYWGQGTQVTVSS”, the “polyreactivity (PSR sort gate)” value is listed as “high polyreactivity”.
The entry for “QVQLVESGGGLVQAGGSLRLSCAASGSTFTKNAMGWYRPAPGKERELVAVISSGGSTNYADSVKGRFTISRDNAKNTVDLQMNSLKPEDTAVYYCAAEHYILYDYLWAYDYWGQGTQVTVSS” is “high polyreactivity”.
Next, “QVQLVESGGGLVQAGGSLRLSCAASGSTFTLYAMGWYRQAPGTERELVAAISWSGDTTYYADSVKGRFTISRDNAKNTVYLQMNILKPEDTAVYYCAADWYNSYYYEHESWGQGTQVTVSS”: “high polyreactivity”; “QVQLVESGGGLVQAGGSLRLSCAASGSTFTLYARGWYRQAPGKERELVATITGSGGSTNYADSVKGRFTISRDNAKNTVYLQMNSLKPEDTAVYYCAADYAVYSFTEFNYWGQGTQVTVSS”: “high polyreactivity”.
The entry for “QVQLVESGGGLVQAGGSLRLSCAASGSTFTLYVMGWYRQAPGKERELVAAISRGDTTNYADSVKGRFTISRDNAKNTVYLQMNSLKPEDTAVYYCAATYPTFFYWSKGYERDYWGQGTQVTVSS” is “low polyreactivity”; for “QVQLVESGGGLVQAGGSLRLSCAASGSTFTPYAMGCYRQAPAKERELVAAINGGGTRTYYADSVKGRFTISRDHAKNTVFLQMNSLKPVDTAVYYCAARTSTSRSYPYNYWGQGTQVTGSS” it is “high polyreactivity”; for “QVQLVESGGGLVQAGGSLRLSCAASGSTFTPYAMGWYRQAPGKERELVAAISRRGGSTSYADSVKGRFTISRDNAKNTVYLQMNSLKPEDTAVYYCNKKTAASDYDYWGQGTQVTVSS” it is “high polyreactivity”.
Take “QVQLVESGGGLVQAGGSLRLSCAASGSTFTPYAMGWYRQAPGKERELVAAITWRTGSTRYADSVKGRFTISRDNAKNTVYLQMNSLKPEDTAVYYCAAKVTRFGAPGVNYWGQGTKVTVSS”: the “polyreactivity (PSR sort gate)” value is “high polyreactivity”.
Next, “QVQLVESGGGLVQAGGSLRLSCAASGSTFTRNAMGWYRQAPGKERELVAAITSSGGSTYYADSVKGRFTISRDNAKNTVYLQMNSLKPEDTAVYYCAAYPHRPRDRELDHWGQGTQVTVSS”: “low polyreactivity”; “QVQLVESGGGLVQAGGSLRLSCAASGSTFTRYAMGWYRQAPGKEREFVAGISWRGGSTYYADSVKGRFTISRDNAKNTVYFQMNSLKPEDTAVYYCAARSFSNIGYHGYGYWGQGTQVTVSW”: “high polyreactivity”.
In the case of “QVQLVESGGGLVQAGGSLRLSCAASGSTFTRYGMGWYRQAPGKERELGAAITTSGSSTYYADSVKGRFTISRDNAKNTVYLQMNSLKPEDTAVYYCAADWSSWGFDYWGQGTQVTVSS”, the “polyreactivity (PSR sort gate)” value was “low polyreactivity”.
The entry for “QVQLVESGGGLVQAGGSLRLSCAASGSTFTSNAMGWYREAPGKEREFVAAISVGGGITYYADSVKGRFTISRDNAKNTVSLQMNSLKPEDTAVYYCAADGEYPHSEDFEYWGQGTQVNVSS” is “low polyreactivity”.
In the case of “QVQLVESGGGLVQAGGSLRLSCAASGSTFTSNAMGWYRQAPGKERELVAAISFSDASTYYADSVKGRFTISRDNAKNTVYLQMNSLKPEDTAVYYCAADSDQDAYDYWGQGTQVTVSS”, the “polyreactivity (PSR sort gate)” value is “low polyreactivity”.
The entry for “QVQLVESGGGLVQAGGSLRLSCAASGSTFTSNAMGWYRQAPGKERELVASISWSGGRTYYADSVKGRFTISRDNAKNTVYLQMNSLKPEDTAVYYCAAASYQSRYWNYYWGQGTQVTVSS” is “high polyreactivity”; for “QVQLVESGGGLVQAGGSLRLSCAASGSTFTSYAMGWYRQAPGKESEFVAAISWDGDNTYADSVKGRFTISRDNAKNTVYLQMNSLKPEDTAVYYCAASHQNGNFGWGYDSWGQGTQVTVSS” it is “high polyreactivity”; for “QVQLVESGGGLVQAGGSLRLSCAASGSTFTSYAMGWYRQAPRKERELVAAINYSGGSTYYADSVKGRFTISRDNAKNTVYLQMNSLKPEDTAVYYCAADGYIRQYVTYYYWGQGTQVTVSS” it is “low polyreactivity”.
Next, “QVQLVESGGGLVQAGGSLRLSCAASGSTFTSYTMGWYRQAPGKERELVARITRGGGSTYYADSVKGRFTISRDNAKNTVYLQMNSLKPEDTAVYYCNAEGYLLPVGNTMDYWGQGTQVTVSS”: “low polyreactivity”; “QVQLVESGGGLVQAGGSLRLSCAASGSTFTTNAMGWYRQAPGKEREFVAAITRSSGSTYYADSVKGRFTISRDNAKNTVYLQMNSLKPEDTAVYYCAAAYRQNPSQSKSRFGYWGQGTQVTVSS”: “high polyreactivity”.
The entry for “QVQLVESGGGLVQAGGSLRLSCAASGSTFTTNAMGWYRQAPGKERELVAAISSGGRTYYADSVKGRFTISRDNAKNTVYLQMNRLKPEDTAVYYCAAEIYYSIYQGSRFYYRGQGTQVTVSS” is “high polyreactivity”; for “QVQLVESGGGLVQAGGSLRLSCAASGSTFTTNVMGWYRQAPGKERELVAAISWSSGSTYYADSVKGRFTISRDNAKNTVYLQMNSLKPEDTAVYYCAAKSTYVVSKMNYWGQGTQVTVSS” it is “high polyreactivity”.
With “QVQLVESGGGLVQAGGSLRLSCAASGSTFTTYAMAWYRQAPGKERELVAAISTNGGRTFYADSVKGRFTISRDNAKNTVYLLMNSLKAEDTAVYYCAADRAGSIMNYWGQGTQVTVSS”, the “polyreactivity (PSR sort gate)” value is “low polyreactivity”.
The entry for “QVQLVESGGGLVQAGGSLRLSCAASGSTFTTYAMGWYRQAPGKEREFVASIRWRGGNTYYADSVKGRFTISRDNAKNTVYLQMNSLKPEDTAVYYCARRVDYISSKYGYWGQGTQVTVSS” is “high polyreactivity”.
Next, “QVQLVESGGGLVQAGGSLRLSCAASGSTFTTYAMGWYRQAPGKERELVAAISTNGGRTFYADSVKGRFTISRDNAKNTVYLQMISLKPEDTAVYYCAAEYGLYAPGYYYWGQGTQVTVSS”: “low polyreactivity”; “QVQLVESGGGLVQAGGSLRLSCAASGSTFTTYAMGWYRQSPGKERELVAVITDSGGTYYADSVKGRFTISRDNAKNTVYLQMNSLKPEDTAVYYCNRVFPPTDYEFDSWGQGTQVTVSS”: “low polyreactivity”; “QVQLVESGGGLVQAGGSLRLSCAASGSTFTTYPMGWYRQAPGKERELVAAISTNGGRTFYADSVKGRFTISGDNAKKTVYLQMNSLKPEDTAVYYCAAEYGLYAPGYYYWGQGTQVTVSS”: “low polyreactivity”.
Next, “QVQLVESGGGLVQAGGSLRLSCAASGSTFTVNAMGWYREAPGKERELVAAITTSGGSTYYADSVKGRFTISRDNAENTVYFQMNSLKPEDTAVYYCNADGPWREVERPFRKEGNYWGQGTQVTVSS”: “low polyreactivity”; “QVQLVESGGGLVQAGGSLRLSCAASGSTFTVNAMGWYRQAPGKDRELVADINWIGGATYYADSVKGRFTSSRDNAKNTVYLQMNSLKPEDTALYYCNADVWEYFTYSFTGFGWYDYWGQGTQVTVSS”: “high polyreactivity”.
For the sequence “QVQLVESGGGLVQAGGSLRLSCAASGSTFTVNAMGWYRQAPGKERELVAAISWRGGTTYYADSVKGRFTISRDNAKNTVYLQMNSLKPEDTAVYYCAATSYRRSGRYYYWGQGTQVTVSS”, the “polyreactivity (PSR sort gate)” value is “high polyreactivity”.
Next, “QVQLVESGGGLVQAGGSLRLSCAASGSTFTVNAMGWYRQAPGKERELVAAISYTDSITYYADSVKGRFTISRDNAKNTVYLQMNSLKPEDTAVYYCAVDYTVYFATYSWPYLSTHEYWGQGTQVTVSS”: “high polyreactivity”; “QVQLVESGGGLVQAGGSLRLSCAASGSTFTVNGMGWYRQAPGKERELVAAITWGGGSTYYADSVKGRFTISRDNAKNTVYLQMNSLKPEDTAVYYCAADDGYLFDYWGQGTQVTVSS”: “low polyreactivity”.
“QVQLVESGGGLVQAGGSLRLSCAASGSTFTVNGMGWYRQAPGKERELVASITWSGGSTYYADSVKGRFTISRDNAKNTVYLQMNSLKPEATAVYYCAADEKLYITGYDYWGQGTQVTVSS”: the “polyreactivity (PSR sort gate)” value is listed as “low polyreactivity”.
The entry for “QVQLVESGGGLVQAGGSLRLSCAASGSTFTVNTMGWYRQAPGKERELVAAISFGGGPTYYADSVKGRFTISRDNAKNTVYLQMNSLKPEDTAVYSCAARGSLWNARKYYYWGQGTQVTVSS” is “high polyreactivity”; for “QVQLVESGGGLVQAGGSLRLSCAASGSTFTVNTMGWYRQAPGKERELVDAISFGGGPTYYADSVKGRFTISRDNAKNTVYLQMNSLKPDDTAVYYCAARGYLWHARKYYYWGQGTQVTVSS” it is “high polyreactivity”.
Next, “QVQLVESGGGLVQAGGSLRLSCAASGSTFTVYAMGWYRLAPGKERELVAAISGSGGRTYYADSVKGRFTISRDNAKNTVYLQMNSLKPEDTAVYYCIARWGYRRGYWGQGTQVTVSS”: “high polyreactivity”; “QVQLVESGGGLVQAGGSLRLSCAASGSTFTVYAMGWYRQAPGKERELVAAISWGGGSTNYADSVKGRFTISRDNAKNTVYLQMNSLKPEDTAVYYCNADIDVIIGSWGDYWGQGTQVTVSS”: “low polyreactivity”.
The entry for “QVQLVESGGGLVQAGGSLRLSCAASGSTFTWNTMGWYRQAPGKEREMVAAISMRGANTYADSVKGRFTISLDNAKNTVYLEMNSLKPEDTAVYYCARDRLAIMDYNEYITRYEYWGQGTQVTVSS” is “low polyreactivity”.
For the sequence “QVQLVESGGGLVQAGGSLRLSCAASGSTFTWNVMGWYRQAPAKERELVASITSGDSTYADSVKGRFTISRDNAKNTVYLQMNSLKPEDTAVYYCNVGYDQEKYGYWGQGTQVTVSS”, the “polyreactivity (PSR sort gate)” value was “low polyreactivity”.
Next, “QVQLVESGGGLVQAGGSLRLSCAASGSTFTYYAMGWYRQAPGKERELVAAITGSDGRTYYADSVKGRFTISRDNAKNTVYLQMNSLKPEDTAVYYCAAYFTRYDFRWHTYYYWGQGTQVTVSS”: “low polyreactivity”; “QVQLVESGGGLVQAGGSLRLSCAASGSTFTYYAMGWYRQAPGKERELVAAITSNGGSTFYADSVKGRFTISRDNAKNTVYLQMNSLKPEDTAVYYCAAYRTHGPPRAIRFDYWGQGTQVTVSS”: “high polyreactivity”; “QVQLVESGGGLVQAGGSLRLSCAASGSTFTYYAMGWYRQAPGTERELVAAITGSDGRTYYADSVKGRFTISRDNAKNTVYLQMNSLKPEDTAVYYCATDVPIREIDEFGYWGQGTQVTVSS”: “low polyreactivity”.
Take “QVQLVESGGGLVQAGGSLRLSCAASGSTFTYYAMGWYRQPPGKERELVAAIDTSGTSTYYADSVKGRFTISRDNAKNTVYLQINSLKPEDTAVYYCNAYPTTYYQQYDYWGQGTQVTVSS”: the “polyreactivity (PSR sort gate)” value was “low polyreactivity”.

These data come from the nanobody polyreactivity screen of Harvey et al. (2022).
